Laboratory results: publication PMC7096706

Biological target: Trypanosoma cruzi farnesyl pyrophosphate synthase (Trypanosoma cruzi)
Assay: dynamic light scattering; stock solution of tcFPPS thawed from -80°C directly before analysis; Zetasizer Ultra; distribution by volume analysis; monomer to dimer

stoichiometry N: 2
Substance: Trypanosoma cruzi farnesyl pyrophosphate synthase (enzyme)
